Source: PMC3153647 (The Journal of Cell Biology, 2011)

Biological target: T1, His-tagged Stx6 (aa 1–234) (human, UniProt O43752 1-234)
T1 sequence: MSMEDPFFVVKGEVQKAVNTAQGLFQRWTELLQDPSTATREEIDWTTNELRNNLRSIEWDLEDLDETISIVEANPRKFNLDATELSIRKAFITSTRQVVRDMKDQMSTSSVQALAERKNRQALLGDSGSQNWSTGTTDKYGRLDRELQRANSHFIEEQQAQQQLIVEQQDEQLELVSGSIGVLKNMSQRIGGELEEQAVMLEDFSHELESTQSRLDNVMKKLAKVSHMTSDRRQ
Experiment: pull-down

B1: GST-Cog6 (aa 1–200), bacterial (domain or fragment)
chain: MAEGSGEVVAVSATGAANGLNNGAGGTSATTCNPLSRKLHKILETRLDNDKEMLEALKALSTFFVENSLRTRRNLRGDIERKSLAINEEFVSIFKEVKEELESISEDVQAMSNCCQDMTSRLQAAKEQTQDLIVKTTKLQSESQKLEIRAQVADAFLSKFQLTSDEMSLLRGTREGPITEDFFKALGRVKQIHNDVKVLL
B1: binds.
